The values that follow come from patent US20220332804A1 (CSL INNOVATION, published 2022).

For orientation: Kd means the concentration at which binding is half-saturated. Low values mean a tighter complex, high ones a looser complex.

The target in experiment [1] is T1, human C2 D404A (human, UniProt P06681 21-752).
T1 sequence: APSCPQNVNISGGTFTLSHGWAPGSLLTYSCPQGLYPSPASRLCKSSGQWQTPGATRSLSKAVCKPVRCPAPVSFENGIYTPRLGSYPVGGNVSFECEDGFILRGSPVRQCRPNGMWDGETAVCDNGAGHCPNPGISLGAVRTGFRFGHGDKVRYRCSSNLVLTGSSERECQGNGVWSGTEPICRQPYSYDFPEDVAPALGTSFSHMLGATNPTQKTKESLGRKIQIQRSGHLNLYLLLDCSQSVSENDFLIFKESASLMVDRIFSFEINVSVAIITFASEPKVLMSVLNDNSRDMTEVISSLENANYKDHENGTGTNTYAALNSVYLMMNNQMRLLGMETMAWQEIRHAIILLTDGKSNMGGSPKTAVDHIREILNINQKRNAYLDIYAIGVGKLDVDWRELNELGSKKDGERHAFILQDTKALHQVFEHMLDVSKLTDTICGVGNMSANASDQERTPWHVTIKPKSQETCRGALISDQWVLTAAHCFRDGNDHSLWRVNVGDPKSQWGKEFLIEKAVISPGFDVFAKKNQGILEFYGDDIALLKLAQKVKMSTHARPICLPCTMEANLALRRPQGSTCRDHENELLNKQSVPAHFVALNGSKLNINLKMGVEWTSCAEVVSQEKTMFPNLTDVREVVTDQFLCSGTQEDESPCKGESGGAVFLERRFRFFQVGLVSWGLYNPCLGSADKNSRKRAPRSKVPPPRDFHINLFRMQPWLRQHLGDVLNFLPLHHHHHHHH
Description: SPR; KD relative to WT C2.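 Also: biacore SPR at 37 °C, anti-C2 mAbs captured on an anti-human IgG chip, alanine or serine C2 surface mutants tested, KD from 1:1 fit compared with wild-type C2.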 A general note: Surface plasmon resonance follows binding to a sensor surface in real time, without labels.

Experiment [2] deals with T2, human C2 K457A (human, UniProt P06681 21-752).
T2 sequence: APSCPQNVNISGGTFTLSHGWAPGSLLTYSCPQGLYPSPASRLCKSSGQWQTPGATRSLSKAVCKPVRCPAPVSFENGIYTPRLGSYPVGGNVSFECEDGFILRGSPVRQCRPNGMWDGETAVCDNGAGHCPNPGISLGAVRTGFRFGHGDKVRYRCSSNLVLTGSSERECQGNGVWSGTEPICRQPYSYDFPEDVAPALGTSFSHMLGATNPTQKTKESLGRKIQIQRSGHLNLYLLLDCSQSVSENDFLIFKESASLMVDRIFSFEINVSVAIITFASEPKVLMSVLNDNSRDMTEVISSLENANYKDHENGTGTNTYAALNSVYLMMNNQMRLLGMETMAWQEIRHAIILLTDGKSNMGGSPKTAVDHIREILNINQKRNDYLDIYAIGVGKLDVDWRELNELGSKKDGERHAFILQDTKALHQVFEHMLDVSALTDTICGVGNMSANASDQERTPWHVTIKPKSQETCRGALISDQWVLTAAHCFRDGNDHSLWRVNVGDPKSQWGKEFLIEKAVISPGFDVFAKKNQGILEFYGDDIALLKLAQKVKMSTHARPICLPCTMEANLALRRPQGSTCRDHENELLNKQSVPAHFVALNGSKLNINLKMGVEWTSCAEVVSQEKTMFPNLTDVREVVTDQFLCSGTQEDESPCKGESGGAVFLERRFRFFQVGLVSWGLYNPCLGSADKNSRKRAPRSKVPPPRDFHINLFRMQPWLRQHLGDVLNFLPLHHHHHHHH
Description: SPR; KD relative to WT C2.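 Also: biacore SPR at 37 °C, anti-C2 mAbs captured on an anti-human IgG chip, alanine or serine C2 surface mutants tested, KD from 1:1 fit compared with wild-type C2.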

For experiment [3], the target named is T3, human complement C2 (human, UniProt P06681 21-752).
T3 sequence: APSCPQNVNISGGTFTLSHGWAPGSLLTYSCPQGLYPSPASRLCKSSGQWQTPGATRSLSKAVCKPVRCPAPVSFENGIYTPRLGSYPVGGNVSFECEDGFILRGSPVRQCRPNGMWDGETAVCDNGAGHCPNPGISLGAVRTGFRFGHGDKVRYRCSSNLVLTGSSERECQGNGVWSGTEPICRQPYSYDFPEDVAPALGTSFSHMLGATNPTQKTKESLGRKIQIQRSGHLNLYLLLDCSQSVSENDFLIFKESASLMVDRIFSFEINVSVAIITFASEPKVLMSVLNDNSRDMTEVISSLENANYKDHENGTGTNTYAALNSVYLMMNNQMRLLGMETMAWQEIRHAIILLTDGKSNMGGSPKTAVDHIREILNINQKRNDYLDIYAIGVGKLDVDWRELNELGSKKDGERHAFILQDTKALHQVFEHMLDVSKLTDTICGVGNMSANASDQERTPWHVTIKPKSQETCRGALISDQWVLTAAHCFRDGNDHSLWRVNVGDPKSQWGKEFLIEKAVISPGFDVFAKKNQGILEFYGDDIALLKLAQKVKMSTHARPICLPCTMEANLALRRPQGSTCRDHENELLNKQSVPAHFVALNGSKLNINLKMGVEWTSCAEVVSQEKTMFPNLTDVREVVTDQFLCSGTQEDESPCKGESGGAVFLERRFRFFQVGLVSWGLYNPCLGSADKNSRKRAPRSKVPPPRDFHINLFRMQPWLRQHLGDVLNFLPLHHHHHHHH
The experiment in a line: cell-based or functional assay.

Experiment [4] has as its target T3, human complement C2. The experiment in a line: SPR, mAb captured, huC2 analyte, neutral pH; pH 7.
The target in experiment [5] is T4, human FcRn/β2m (human, UniProt P55899 24-297; P61769 21-119).
T4 construct: Soluble FcRn/β2m injected as analyte over immobilised antibody; also called neonatal Fc receptor
T4 sequence (P55899 24-297 limits assumed, chain 1 of 2): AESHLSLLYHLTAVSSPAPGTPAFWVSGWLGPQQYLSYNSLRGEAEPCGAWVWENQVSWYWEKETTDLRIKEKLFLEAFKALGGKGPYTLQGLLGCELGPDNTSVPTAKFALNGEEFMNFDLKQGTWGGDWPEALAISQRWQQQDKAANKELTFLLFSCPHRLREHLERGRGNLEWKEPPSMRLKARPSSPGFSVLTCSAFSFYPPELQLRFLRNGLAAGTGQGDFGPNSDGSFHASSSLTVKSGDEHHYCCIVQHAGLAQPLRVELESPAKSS
T4 sequence (P61769 21-119 limits assumed, chain 2 of 2): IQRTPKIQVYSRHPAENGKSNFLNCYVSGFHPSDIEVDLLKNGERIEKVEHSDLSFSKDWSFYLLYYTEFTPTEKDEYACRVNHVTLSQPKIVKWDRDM
Description: SPR, antibody immobilised, FcRn/β2m analyte, pH 6.0; pH 6.0.
Description: Anti-C2 mAbs (1 μg/mL at pH 5) were immobilized on a carboxylmethyldextran (CM5) sensorchip surface using standard EDC/NHS chemistry. Human and Cyno FcRn/β2m (40 μM) were prepared in running buffer (10 mM HEPES, 150 mM NaCl, 10 mM MES adjusted to either pH 6 or pH 7.3) and injected on the immobilized anti-C2 surface at concentrations ranging from 0.078 to 40 μM, prepared in two-fold dilutions in running buffer. Association and dissociation phases were monitored for 180 and 600 seconds, respectively. […] Double referenced sensorgrams were fitted to either a 1:1 kinetic model (pH 6), including a term for mass transport limitation or to a 1:1 steady state model (pH 7.3) where responses at the end of the association phase were plotted against respective concentrations.
Binding to both human and cynomolgus monkey FcRn was tested using the SPR methods described above.

B1: RF16-214 (antibody, V domains shown)
VH: EVQLLESGGGLVQPGGSLRLSCAASGFTFSWYQMMWVRQAPGKGLEWVSRIYPSGGGTAYADSVKGRFTISRDNSKNTLYLQMNSLRAEDTAVYYCARDAGYGDNWGQGTLVTVSS
VL: QSALTQPPSVSVSPGQTASITCSGDKLGEKYASWYQQKAGQSPVMVIYQDRKRPSGIPERFSGSNSGNTATLTISGTQAMDEADYYCQAWDTRAVVFGGGTKLTVLG
On to B1, for which the Fold diff was 3 fold in experiment [1] and 1 fold in experiment [2].

B2: RF16-226 (antibody)
heavy: not shown
light: SYELTQPPSVSVSPGQTARITCSGDALTSKYVAWYQQKSGLAPLLVIYEDTRRPSGIPAKFSGSSSGSVATLTISGAHGDDEADYYCYSTDASGHQRVFGGGTKLTVLSQPKAAPSVTLFPPSSEELQANKATLVCLISDFYPGAVTVAWKADGSPVKAGVETTKPSKQSNNKYAASSYLSLTPEQWKSHRSYSCQVTHEGSTVEKTVAPTECS
Regarding B2, the “log IC50 for inhibition of C1s-mediated cleavage of C2 (C2a band on SDS-PAGE, C1s titrated)” value in experiment [3] was 50.3 nM. In experiment [4], this molecule returned a Kd of around 9 nM.

B3: RF16-226 (antibody, human IgG4 S228P, lambda)
heavy: not shown
light: SYELTQPPSVSVSPGQTARITCSGDALTSKYVAWYQQKSGLAPLLVIYEDTRRPSGIPAKFSGSSSGSVATLTISGAHGDDEADYYCYSTDASGHQRVFGGGTKLTVLSQPKAAPSVTLFPPSSEELQANKATLVCLISDFYPGAVTVAWKADGSPVKAGVETTKPSKQSNNKYAASSYLSLTPEQWKSHRSYSCQVTHEGSTVEKTVAPTECS
notes: pH-dependent anti-C2 antibody from a phage display library; also called WT
On to B3, for which the dissociation constant Kd in experiment [5] is 3800 nM.
